Measurements as given in publication PMC5156543 (Molecular Biology of the Cell, 2016).

Biological target: T1, Vps35-3xHA (S. cerevisiae, UniProt P34110 1-944)
T1 sequence: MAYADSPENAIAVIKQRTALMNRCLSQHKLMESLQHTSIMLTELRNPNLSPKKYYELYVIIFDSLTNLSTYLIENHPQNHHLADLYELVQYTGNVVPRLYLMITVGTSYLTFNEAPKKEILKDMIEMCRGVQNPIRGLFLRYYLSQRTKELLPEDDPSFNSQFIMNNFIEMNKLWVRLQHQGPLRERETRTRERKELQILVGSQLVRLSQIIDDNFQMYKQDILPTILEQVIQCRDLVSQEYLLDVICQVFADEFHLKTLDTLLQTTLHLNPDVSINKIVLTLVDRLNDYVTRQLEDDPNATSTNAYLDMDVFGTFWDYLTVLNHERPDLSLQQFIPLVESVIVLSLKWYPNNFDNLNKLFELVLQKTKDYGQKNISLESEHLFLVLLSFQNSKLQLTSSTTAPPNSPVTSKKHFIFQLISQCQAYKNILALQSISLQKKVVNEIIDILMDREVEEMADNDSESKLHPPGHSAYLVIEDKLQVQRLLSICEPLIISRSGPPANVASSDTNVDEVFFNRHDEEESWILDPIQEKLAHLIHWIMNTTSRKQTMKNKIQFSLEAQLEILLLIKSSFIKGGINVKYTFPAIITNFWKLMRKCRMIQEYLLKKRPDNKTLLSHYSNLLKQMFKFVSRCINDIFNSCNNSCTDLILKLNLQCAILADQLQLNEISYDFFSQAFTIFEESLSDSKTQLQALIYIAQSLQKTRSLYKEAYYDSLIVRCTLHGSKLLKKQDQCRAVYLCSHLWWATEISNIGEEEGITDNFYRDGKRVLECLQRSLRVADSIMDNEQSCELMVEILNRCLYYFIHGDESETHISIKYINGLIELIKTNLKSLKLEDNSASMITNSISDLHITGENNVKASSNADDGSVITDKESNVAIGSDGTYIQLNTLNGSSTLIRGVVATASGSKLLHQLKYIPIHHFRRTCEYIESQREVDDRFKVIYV
Assay: co-IP

B1: Δ63-125Chs3-GFP (natural protein)
chain: MTGLNGDDPDDYYLNLNQDEESLLRSRHSVGSGAPHRQGSLVRPERSRLNNPDNPHFYYAQKDEGVAEDEFDKDGDVDNFEESSTQPINKSIKPLRKETNDTLSFWQMYCYFITFWAPAPILAFCGMPKKERQMAWREKVALISVILYIGAIVAFLTFGFTKTVCSSSKLRLKNNEVSTEFVVINGKAYELDTSSRSGIQDVEVDSDTLYGPWSDAGKDASFLFQNVNGNCHNLITPKSNSSIPHDDDNNLAWYFPCKLKNQDGSSKPNFTVENYAGWNCHTSKEDRDAFYGLKSKADVYFTWDGIKNSSRNLIVYNGDVLDLDLLDWLEKDDVDYPVVFDDLKTSNLQGYDLSLVLSNGHERKIARCLSEIIKVGEVDSKTVGCIASDVVLYVSLVFILSVVIIKFIIACYFRWTVARKQGAYIVDNKTMDKHTNDIEDWSNNIQTKAPLKEVDPHLRPKKYSKKSLGHKRASTFDLLKKHSSKMFQFNESVIDLDTSMSSSLQSSGSYRGMTTMTTQNAWKLSNENKAVHSRNPSTLLPTSSMFWNKATSSPVPGSSLIQSLDSTIIHPDIVQQPPLDFMPYGFPLIHTICFVTCYSEDEEGLRTTLDSLSTTDYPNSHKLLMVVCDGLIKGSGNDKTTPEIALGMMDDFVTPPDEVKPYSYVAVASGSKRHNMAKIYAGFYKYDDSTIPPENQQRVPIITIVKCGTPAEQGAAKPGNRGKRDSQIILMSFLEKITFDERMTQLEFQLLKNIWQITGLMADFYETVLMVDADTKVFPDALTHMVAEMVKDPLIMGLCGETKIANKAQSWVTAIQVFEYYISHHQAKAFESVFGSVTCLPGCFSMYRIKSPKGSDGYWVPVLANPDIVERYSDNVTNTLHKKNLLLLGEDRFLSSLMLKTFPKRKQVFVPKAACKTIAPDKFKVLLSQRRRWINSTVHNLFELVLIRDLCGTFCFSMQFVIGIELIGTMVLPLAICFTIYVIIFAIVSKPTPVITLVLLAIILGLPGLIVVITATRWSYLWWMCVYICALPIWNFVLPSYAYWKFDDFSWGDTRTIAGGNKKAQDENEGEFDHSKIKMRTWREFEREDILNRKEESDSFVA
level of coIP relative to wild-type Chs3: ~0.25 of the level with wild-type Chs3
